According to paper PMC11417369, “DNA sequence and chromatin differentiate sequence-specific transcription factor binding in the human malaria parasite Plasmodium falciparum”:

What was measured:
[1] = target: T1, HDP1 homeodomain-like (Plasmodium falciparum, UniProt Q8IKH4 2990-3078); assay: gcPBM; about 25 ug protein; PBS, 1% milk, 0.2 mg/ml BSA, salmon testes DNA, 0.03% Triton X-100; settings: tags: N-terminal GST (pGEX-4T-1), kept; chain copies: 2; label: surface-attached array probe
T1 sequence: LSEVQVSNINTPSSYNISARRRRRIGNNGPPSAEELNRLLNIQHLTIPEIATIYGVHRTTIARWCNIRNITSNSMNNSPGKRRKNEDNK

[2] = target: AP2-I D3 (Plasmodium falciparum, UniProt Q8IJW6 910-1027); assay: as above; settings: tags: N-terminal GST (pGEX-4T-1), kept; label: surface-attached array probe

Binder | binding signal [1] | binding signal [2]
GTGCAC_negctrl_site175 (dsDNA) DNA 1: AAAATGTATGGAATGCTCTTTTTTAAGTATTATATA DNA 2: TATATAATACTTAAAAAAGAGCATTCCATACATTTT | 6.2 ln median PBM intensity, better of two orientations | 6.96 ln median PBM intensity, better of two orientations
GTGCAC_negctrl_site138 (dsDNA) DNA 1: AAAAACAATCATTTTAAATAAAAATCTCTAATTTAA DNA 2: TTAAATTAGAGATTTTTATTTAAAATGATTGTTTTT | 5.6 ln median PBM intensity, better of two orientations | 6.74 ln median PBM intensity, better of two orientations
GTGCAC_negctrl_site257 (dsDNA) DNA 1: TGCAAAAAAAAAAAAAAAAAATATATGGAAATATAT DNA 2: ATATATTTCCATATATTTTTTTTTTTTTTTTTTGCA | 6.13 ln median PBM intensity, better of two orientations | 6.92 ln median PBM intensity, better of two orientations
GTGCAC_negctrl_site177 (dsDNA) DNA 1: TCACAAAAAGAACATTGATATTATTATAAAATCGTC DNA 2: GACGATTTTATAATAATATCAATGTTCTTTTTGTGA | 6.14 ln median PBM intensity, better of two orientations | 7 ln median PBM intensity, better of two orientations
GTGCAC_negctrl_site39 (dsDNA) DNA 1: AAACAGCATGGTATACCTATAAAATATATATACTAA DNA 2: TTAGTATATATATTTTATAGGTATACCATGCTGTTT | 6.18 ln median PBM intensity, better of two orientations | 7.07 ln median PBM intensity, better of two orientations
GTGCAC_negctrl_site245 (dsDNA) DNA 1: TTTTATATCTAGTTTATATTTCTTAAATAAATAAAT DNA 2: ATTTATTTATTTAAGAAATATAAACTAGATATAAAA | 6.07 ln median PBM intensity, better of two orientations | 7.05 ln median PBM intensity, better of two orientations
GTGCAC_negctrl_site601 (dsDNA) DNA 1: TAAGCCAAGGGATAAATAAAATAACAAAATGAAATC DNA 2: GATTTCATTTTGTTATTTTATTTATCCCTTGGCTTA | 6.27 ln median PBM intensity, better of two orientations | 7.02 ln median PBM intensity, better of two orientations
GTGCAC_negctrl_site27 (dsDNA) DNA 1: ACATATGTATGAATATCAAAAAATCCCTATTTAATG DNA 2: CATTAAATAGGGATTTTTTGATATTCATACATATGT | 6.3 ln median PBM intensity, better of two orientations | 6.97 ln median PBM intensity, better of two orientations
GTGCAC_negctrl_site614 (dsDNA) DNA 1: TATTTAGACATAACAAATAGACTAACAAAAGATTTA DNA 2: TAAATCTTTTGTTAGTCTATTTGTTATGTCTAAATA | 6.13 ln median PBM intensity, better of two orientations | 6.94 ln median PBM intensity, better of two orientations
GTGCAC_negctrl_site154 (dsDNA) DNA 1: AATAGTATTCACAAAGTTTTATATAATAAATATAAA DNA 2: TTTATATTTATTATATAAAACTTTGTGAATACTATT | 5.94 ln median PBM intensity, better of two orientations | 6.96 ln median PBM intensity, better of two orientations
GTGCAC_negctrl_site155 (dsDNA) DNA 1: AAATTTTTTAATTTTTCTCATTTAATTTAAAAATTA DNA 2: TAATTTTTAAATTAAATGAGAAAAATTAAAAAATTT | 5.71 ln median PBM intensity, better of two orientations | 7.03 ln median PBM intensity, better of two orientations
GTGCAC_negctrl_site13 (dsDNA) DNA 1: AAAAAAAAAAATATATTAAAATAAAAAATATTAACA DNA 2: TGTTAATATTTTTTATTTTAATATATTTTTTTTTTT | 6.05 ln median PBM intensity, better of two orientations | 6.95 ln median PBM intensity, better of two orientations
GTGCAC_negctrl_site342 (dsDNA) DNA 1: TATTTATATAATCCTATAATATTACTACTATCTTTA DNA 2: TAAAGATAGTAGTAATATTATAGGATTATATAAATA | 6.28 ln median PBM intensity, better of two orientations | 6.86 ln median PBM intensity, better of two orientations
GTGCAC_negctrl_site298 (dsDNA) DNA 1: TTTTAACAAAACTAAATAATCATATATATAAGATAT DNA 2: ATATCTTATATATATGATTATTTAGTTTTGTTAAAA | 6.21 ln median PBM intensity, better of two orientations | 6.97 ln median PBM intensity, better of two orientations
GTGCAC_site10292 (dsDNA) DNA 1: ATAATATGTTATTAAGTGCATATTAATTATTATTAT DNA 2: ATAATAATAATTAATATGCACTTAATAACATATTAT | 9.18 ln median PBM intensity, better of two orientations | 9.72 ln median PBM intensity, better of two orientations
GTGCAC_negctrl_site305 (dsDNA) DNA 1: ATTTATATAAAATTAAAATAATACAAATTTATTCAT DNA 2: ATGAATAAATTTGTATTATTTTAATTTTATATAAAT | 6.1 ln median PBM intensity, better of two orientations | 7 ln median PBM intensity, better of two orientations
